Reference: patent publication US20020142976

Tested on: IDH22

Chain of ATR (chain, as listed by the source): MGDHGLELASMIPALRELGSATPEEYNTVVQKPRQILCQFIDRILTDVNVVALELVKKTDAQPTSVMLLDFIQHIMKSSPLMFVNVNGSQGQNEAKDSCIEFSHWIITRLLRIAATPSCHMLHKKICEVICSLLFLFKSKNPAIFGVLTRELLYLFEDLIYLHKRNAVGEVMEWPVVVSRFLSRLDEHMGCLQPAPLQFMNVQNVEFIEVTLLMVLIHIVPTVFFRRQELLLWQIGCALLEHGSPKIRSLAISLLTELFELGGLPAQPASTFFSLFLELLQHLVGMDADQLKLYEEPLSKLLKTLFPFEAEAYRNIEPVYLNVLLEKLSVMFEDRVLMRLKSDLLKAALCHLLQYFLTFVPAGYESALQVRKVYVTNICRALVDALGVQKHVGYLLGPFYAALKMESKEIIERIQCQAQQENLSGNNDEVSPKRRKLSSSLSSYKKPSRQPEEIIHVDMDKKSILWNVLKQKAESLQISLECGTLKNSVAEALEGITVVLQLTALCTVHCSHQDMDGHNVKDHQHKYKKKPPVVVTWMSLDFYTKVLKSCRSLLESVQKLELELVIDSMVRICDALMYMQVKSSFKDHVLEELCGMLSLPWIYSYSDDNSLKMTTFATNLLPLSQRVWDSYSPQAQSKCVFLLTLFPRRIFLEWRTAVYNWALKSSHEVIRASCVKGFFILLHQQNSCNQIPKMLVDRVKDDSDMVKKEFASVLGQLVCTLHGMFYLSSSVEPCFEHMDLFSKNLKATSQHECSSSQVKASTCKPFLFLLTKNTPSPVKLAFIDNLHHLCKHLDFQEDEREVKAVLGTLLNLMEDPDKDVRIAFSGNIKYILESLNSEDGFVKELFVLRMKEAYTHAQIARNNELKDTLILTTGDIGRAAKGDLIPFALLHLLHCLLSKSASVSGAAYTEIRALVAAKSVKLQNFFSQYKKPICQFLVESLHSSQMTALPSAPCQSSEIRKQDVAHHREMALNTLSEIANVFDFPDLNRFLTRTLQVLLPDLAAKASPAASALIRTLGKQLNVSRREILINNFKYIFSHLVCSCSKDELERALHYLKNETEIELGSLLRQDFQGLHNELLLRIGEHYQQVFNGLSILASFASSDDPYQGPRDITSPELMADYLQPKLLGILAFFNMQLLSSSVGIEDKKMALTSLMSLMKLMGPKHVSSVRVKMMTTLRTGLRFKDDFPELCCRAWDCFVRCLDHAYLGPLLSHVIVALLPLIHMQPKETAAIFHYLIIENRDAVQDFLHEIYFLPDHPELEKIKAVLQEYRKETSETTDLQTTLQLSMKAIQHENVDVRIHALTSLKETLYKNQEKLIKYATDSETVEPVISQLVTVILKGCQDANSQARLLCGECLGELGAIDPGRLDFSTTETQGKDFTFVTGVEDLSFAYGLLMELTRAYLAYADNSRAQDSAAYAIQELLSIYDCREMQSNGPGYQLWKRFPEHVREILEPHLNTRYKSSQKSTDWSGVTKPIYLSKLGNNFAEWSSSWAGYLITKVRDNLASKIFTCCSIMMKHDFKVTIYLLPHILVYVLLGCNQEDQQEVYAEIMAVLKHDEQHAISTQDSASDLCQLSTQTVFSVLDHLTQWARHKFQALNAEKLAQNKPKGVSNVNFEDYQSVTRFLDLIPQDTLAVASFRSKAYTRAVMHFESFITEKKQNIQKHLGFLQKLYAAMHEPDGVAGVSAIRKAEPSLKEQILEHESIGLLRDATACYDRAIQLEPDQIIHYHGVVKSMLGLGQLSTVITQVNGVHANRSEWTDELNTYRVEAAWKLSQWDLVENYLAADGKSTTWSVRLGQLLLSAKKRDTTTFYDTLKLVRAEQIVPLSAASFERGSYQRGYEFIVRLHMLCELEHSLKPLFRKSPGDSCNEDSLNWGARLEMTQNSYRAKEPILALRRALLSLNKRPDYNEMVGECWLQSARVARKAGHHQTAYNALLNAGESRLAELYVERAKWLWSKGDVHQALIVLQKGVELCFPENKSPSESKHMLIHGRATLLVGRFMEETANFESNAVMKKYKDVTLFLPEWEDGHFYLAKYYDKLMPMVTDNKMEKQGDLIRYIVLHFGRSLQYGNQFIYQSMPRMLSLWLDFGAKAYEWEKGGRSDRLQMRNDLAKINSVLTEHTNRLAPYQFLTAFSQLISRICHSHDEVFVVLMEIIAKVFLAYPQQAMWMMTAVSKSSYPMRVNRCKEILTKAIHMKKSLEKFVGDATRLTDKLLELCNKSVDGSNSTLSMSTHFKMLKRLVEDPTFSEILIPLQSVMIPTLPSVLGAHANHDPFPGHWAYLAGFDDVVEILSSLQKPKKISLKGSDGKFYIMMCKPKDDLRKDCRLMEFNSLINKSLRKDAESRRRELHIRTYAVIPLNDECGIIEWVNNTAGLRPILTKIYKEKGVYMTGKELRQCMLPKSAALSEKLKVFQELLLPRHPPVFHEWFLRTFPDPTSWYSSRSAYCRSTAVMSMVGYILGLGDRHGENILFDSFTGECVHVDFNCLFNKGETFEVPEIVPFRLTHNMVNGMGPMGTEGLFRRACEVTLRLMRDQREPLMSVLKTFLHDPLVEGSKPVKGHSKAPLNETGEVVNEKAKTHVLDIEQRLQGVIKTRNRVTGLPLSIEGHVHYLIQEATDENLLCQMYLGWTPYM

## ATR
  phosphorylation of peptide substrate (32P kinase assay, plate-captured ATR): ATR phosphorylated IDH22
